The source of these data is patent publication US20220119490A1 (Genentech, published 2022).

In experiment [1] the target is T1, PTPRZ1 expressed on cells (human, UniProt P23471 25-2315).
T1 construct: whole, on cells
Kind of experiment: cell surface interaction assay: streptavidin-tetramerized biotinylated ECD on transfected cells, immunofluorescence. The text has this:
FIG. 3H is a schematic showing the design of the cell surface interaction assay.

The target of experiment [2] is T2, CHL1 extracellular domain (human, UniProt O00533 25-1082).
T2 construct: extracellular domain; Soluble query (streptavidin tetramer) in cell assays; recombinant protein (R&D) in SPR; also called neural cell adhesion molecule L1-like protein; close homolog of L1
T2 sequence (looked up): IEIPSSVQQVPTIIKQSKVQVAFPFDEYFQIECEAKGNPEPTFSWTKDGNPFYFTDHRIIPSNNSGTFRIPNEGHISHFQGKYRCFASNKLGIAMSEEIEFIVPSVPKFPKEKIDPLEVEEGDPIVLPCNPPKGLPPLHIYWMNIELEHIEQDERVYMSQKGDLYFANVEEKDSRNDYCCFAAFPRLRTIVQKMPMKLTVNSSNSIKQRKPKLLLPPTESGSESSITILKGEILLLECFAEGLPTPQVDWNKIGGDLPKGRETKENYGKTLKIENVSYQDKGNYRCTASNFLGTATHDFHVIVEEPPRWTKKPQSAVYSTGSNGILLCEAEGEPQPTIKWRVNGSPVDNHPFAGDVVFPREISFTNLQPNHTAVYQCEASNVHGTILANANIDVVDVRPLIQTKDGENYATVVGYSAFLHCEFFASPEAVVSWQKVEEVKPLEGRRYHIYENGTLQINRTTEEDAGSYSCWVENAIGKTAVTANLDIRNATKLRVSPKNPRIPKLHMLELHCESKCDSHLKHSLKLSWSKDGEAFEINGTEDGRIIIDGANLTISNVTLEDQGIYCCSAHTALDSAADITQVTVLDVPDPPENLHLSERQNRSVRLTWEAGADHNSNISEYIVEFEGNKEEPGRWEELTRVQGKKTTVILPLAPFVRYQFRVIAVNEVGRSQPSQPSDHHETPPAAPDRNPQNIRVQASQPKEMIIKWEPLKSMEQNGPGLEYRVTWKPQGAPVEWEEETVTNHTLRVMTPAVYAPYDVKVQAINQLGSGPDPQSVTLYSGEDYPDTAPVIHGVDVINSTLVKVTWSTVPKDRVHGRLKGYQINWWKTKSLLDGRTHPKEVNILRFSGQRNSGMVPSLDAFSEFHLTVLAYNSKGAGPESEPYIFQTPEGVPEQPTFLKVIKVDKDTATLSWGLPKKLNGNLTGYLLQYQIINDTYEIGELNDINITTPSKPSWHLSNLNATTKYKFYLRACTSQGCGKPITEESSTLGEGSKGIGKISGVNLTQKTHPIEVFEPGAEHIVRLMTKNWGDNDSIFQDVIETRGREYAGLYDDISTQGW
Briefly: SPR, CHL1 immobilized, CNTN1 ECD-Fc injected at 250 nM.

The target in a further experiment is T3, PTPRT expressed on cells (human, UniProt O14522 26-1441).
T3 construct: whole, on cells
T3 sequence (looked up): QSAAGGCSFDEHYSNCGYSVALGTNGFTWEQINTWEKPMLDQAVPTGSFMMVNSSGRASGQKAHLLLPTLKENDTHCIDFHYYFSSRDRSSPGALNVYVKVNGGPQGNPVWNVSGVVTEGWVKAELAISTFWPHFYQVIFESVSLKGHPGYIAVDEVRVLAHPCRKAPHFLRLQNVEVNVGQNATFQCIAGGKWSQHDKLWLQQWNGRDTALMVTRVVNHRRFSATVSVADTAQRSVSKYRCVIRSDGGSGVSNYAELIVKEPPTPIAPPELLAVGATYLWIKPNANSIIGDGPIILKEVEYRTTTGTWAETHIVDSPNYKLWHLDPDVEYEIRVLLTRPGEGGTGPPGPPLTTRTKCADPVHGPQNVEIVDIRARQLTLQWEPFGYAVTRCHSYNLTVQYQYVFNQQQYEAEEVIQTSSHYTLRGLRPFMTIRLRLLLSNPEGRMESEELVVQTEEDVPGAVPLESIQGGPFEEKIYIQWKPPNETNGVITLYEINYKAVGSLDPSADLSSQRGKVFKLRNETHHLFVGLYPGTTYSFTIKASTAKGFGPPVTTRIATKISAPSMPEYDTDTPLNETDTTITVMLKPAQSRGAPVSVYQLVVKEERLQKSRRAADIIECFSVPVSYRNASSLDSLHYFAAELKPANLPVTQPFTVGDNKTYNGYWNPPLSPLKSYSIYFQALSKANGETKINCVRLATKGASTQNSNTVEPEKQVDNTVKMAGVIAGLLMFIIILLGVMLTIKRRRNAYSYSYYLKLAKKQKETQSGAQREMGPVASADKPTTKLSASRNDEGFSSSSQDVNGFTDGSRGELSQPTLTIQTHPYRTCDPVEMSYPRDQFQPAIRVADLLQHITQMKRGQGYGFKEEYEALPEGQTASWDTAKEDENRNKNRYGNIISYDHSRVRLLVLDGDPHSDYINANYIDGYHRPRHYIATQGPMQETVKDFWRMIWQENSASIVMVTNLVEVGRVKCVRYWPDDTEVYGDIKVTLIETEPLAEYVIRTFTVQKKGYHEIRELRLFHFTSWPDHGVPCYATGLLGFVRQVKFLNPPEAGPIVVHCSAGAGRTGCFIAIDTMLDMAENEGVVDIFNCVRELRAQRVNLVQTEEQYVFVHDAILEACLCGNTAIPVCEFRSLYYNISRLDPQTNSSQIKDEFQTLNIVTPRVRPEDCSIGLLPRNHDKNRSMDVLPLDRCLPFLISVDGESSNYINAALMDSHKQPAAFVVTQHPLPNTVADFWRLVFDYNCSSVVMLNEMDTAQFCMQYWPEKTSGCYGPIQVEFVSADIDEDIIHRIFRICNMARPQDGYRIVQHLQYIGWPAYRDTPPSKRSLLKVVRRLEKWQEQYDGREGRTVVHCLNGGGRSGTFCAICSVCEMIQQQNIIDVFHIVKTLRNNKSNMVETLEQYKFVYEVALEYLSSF
Kind of experiment: cell surface interaction assay: query ECD tetramerised with fluorescent streptavidin on transfected cells, immunofluorescence.

A further experiment has as its target T4, PTPRF expressed on cells (human, UniProt P10586 30-1907).
T4 construct: whole, on cells; also called receptor-type tyrosine-protein phosphatase F
Described as above.

In another experiment the target is T5, PTPRD expressed on cells (human, UniProt P23468 21-1912).
T5 construct: whole, on cells; also called receptor-type tyrosine-protein phosphatase delta
Described as above.

T4 sequence (P10586 30-1907): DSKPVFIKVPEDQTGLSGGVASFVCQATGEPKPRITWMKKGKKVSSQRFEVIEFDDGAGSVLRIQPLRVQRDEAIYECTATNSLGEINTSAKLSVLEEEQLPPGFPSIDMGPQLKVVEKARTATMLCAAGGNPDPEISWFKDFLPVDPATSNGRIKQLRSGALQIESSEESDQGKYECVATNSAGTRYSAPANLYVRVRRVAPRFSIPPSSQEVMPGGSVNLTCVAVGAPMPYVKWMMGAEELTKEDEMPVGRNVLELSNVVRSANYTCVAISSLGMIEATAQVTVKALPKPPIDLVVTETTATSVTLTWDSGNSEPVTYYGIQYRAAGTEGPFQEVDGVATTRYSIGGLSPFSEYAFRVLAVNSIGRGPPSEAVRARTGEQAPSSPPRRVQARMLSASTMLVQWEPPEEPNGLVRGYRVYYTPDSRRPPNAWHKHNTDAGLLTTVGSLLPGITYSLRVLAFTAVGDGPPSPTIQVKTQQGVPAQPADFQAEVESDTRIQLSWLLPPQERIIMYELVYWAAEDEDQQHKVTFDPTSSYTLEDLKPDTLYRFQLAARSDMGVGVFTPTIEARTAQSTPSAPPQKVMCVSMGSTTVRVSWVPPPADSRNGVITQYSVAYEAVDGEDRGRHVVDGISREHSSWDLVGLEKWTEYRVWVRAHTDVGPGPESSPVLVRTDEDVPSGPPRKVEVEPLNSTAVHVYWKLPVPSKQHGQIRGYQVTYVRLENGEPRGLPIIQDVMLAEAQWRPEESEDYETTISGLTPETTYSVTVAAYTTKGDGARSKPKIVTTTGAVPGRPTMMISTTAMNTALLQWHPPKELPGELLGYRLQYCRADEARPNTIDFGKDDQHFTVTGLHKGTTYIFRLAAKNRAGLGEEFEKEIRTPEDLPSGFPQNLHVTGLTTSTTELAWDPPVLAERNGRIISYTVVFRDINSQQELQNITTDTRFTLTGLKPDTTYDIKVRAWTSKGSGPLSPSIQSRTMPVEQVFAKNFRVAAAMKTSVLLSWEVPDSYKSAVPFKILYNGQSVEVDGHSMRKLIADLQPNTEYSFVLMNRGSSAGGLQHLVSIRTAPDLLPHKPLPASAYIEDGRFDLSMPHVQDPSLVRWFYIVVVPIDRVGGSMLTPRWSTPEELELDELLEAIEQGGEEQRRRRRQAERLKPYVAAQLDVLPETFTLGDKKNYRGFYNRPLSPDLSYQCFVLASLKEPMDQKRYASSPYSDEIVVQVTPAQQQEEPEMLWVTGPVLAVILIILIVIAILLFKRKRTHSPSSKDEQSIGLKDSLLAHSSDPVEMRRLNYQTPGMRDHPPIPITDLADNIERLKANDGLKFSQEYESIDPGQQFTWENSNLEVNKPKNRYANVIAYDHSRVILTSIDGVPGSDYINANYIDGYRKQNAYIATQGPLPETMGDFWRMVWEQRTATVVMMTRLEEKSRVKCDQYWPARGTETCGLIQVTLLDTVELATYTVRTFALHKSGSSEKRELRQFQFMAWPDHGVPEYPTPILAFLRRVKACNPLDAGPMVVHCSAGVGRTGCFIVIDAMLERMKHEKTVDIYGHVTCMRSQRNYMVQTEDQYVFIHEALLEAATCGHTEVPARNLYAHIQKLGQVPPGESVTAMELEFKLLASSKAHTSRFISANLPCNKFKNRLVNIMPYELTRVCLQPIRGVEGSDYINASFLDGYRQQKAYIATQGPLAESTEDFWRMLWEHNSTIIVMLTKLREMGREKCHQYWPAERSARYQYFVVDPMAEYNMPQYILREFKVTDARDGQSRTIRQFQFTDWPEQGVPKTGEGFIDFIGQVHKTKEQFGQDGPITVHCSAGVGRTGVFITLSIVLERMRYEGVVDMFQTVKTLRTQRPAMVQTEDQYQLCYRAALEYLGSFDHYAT
T1 sequence (P23471 25-2315): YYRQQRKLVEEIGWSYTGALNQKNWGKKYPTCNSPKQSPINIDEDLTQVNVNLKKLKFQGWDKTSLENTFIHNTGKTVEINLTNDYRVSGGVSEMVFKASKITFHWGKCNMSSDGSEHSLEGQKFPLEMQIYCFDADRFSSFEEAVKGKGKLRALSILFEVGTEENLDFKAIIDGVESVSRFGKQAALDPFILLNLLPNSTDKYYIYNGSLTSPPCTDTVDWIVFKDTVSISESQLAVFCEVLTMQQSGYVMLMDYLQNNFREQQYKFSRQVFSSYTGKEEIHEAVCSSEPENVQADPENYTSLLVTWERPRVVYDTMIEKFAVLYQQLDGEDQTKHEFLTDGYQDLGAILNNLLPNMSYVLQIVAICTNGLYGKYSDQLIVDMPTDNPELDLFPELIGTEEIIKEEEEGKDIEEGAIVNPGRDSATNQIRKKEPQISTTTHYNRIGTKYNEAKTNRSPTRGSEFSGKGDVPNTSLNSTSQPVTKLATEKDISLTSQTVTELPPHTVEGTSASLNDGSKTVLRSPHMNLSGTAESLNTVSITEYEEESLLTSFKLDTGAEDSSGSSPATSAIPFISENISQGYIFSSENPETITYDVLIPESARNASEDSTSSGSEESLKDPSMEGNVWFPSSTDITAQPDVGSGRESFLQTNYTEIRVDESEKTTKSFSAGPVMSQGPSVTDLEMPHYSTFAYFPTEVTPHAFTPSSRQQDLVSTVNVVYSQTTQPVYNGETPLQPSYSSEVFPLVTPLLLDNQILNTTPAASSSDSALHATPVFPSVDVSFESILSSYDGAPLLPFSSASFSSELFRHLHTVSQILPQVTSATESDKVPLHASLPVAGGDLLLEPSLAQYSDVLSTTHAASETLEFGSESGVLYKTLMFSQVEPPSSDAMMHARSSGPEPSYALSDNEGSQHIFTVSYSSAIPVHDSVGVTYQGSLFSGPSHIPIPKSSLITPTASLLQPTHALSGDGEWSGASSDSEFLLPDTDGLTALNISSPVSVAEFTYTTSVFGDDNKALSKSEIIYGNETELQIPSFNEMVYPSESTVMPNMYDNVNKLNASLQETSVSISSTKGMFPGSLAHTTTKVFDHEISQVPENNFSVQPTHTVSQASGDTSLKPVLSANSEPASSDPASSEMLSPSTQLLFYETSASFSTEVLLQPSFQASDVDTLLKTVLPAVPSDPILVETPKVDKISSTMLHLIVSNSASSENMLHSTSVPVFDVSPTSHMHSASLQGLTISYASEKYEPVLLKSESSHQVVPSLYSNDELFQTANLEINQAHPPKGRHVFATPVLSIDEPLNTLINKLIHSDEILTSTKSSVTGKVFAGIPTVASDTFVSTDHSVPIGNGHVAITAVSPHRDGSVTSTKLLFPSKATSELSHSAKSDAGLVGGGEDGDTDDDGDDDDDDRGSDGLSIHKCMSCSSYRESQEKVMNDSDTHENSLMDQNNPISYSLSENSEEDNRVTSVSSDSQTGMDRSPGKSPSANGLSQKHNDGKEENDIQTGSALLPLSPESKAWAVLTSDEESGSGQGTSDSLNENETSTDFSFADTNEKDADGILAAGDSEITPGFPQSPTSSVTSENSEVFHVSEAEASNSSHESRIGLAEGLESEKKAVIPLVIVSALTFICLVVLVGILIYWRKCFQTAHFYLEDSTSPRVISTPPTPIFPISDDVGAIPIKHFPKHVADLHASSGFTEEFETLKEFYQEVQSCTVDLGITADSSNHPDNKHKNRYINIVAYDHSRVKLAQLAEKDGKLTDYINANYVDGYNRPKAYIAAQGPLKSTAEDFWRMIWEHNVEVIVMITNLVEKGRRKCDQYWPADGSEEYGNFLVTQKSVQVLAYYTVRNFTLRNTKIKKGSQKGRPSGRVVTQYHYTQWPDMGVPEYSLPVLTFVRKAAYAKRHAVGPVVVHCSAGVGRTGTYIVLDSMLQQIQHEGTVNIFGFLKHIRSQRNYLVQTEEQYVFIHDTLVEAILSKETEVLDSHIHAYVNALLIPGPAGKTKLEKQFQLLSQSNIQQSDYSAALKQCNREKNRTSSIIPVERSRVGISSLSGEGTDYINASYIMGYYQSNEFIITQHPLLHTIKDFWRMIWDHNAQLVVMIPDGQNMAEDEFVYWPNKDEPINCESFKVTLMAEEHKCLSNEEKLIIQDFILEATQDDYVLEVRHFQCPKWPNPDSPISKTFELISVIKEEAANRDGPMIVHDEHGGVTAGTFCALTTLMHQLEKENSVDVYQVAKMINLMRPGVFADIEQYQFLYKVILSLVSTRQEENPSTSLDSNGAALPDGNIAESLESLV

B1: CNTN1 extracellular domain (receptor, human, UniProt Q12860 21-993, looked up)
chain: EFTWYRRYGHGVSEEDKGFGPIFEEQPINTIYPEESLEGKVSLNCRARASPFPVYKWRMNNGDVDLTSDRYSMVGGNLVINNPDKQKDAGIYYCLASNNYGMVRSTEATLSFGYLDPFPPEERPEVRVKEGKGMVLLCDPPYHFPDDLSYRWLLNEFPVFITMDKRRFVSQTNGNLYIANVEASDKGNYSCFVSSPSITKSVFSKFIPLIPIPERTTKPYPADIVVQFKDVYALMGQNVTLECFALGNPVPDIRWRKVLEPMPSTAEISTSGAVLKIFNIQLEDEGIYECEAENIRGKDKHQARIYVQAFPEWVEHINDTEVDIGSDLYWPCVATGKPIPTIRWLKNGYAYHKGELRLYDVTFENAGMYQCIAENTYGAIYANAELKILALAPTFEMNPMKKKILAAKGGRVIIECKPKAAPKPKFSWSKGTEWLVNSSRILIWEDGSLEINNITRNDGGIYTCFAENNRGKANSTGTLVITDPTRIILAPINADITVGENATMQCAASFDPALDLTFVWSFNGYVIDFNKENIHYQRNFMLDSNGELLIRNAQLKHAGRYTCTAQTIVDNSSASADLVVRGPPGPPGGLRIEDIRATSVALTWSRGSDNHSPISKYTIQTKTILSDDWKDAKTDPPIIEGNMEAARAVDLIPWMEYEFRVVATNTLGRGEPSIPSNRIKTDGAAPNVAPSDVGGGGGRNRELTITWAPLSREYHYGNNFGYIVAFKPFDGEEWKKVTVTNPDTGRYVHKDETMSPSTAFQVKVKAFNNKGDGPYSLVAVINSAQDAPSEAPTEVGVKVLSSSEISVHWEHVLEKIVESYQIRYWAAHDKEEAANRVQVTSQEYSARLENLLPDTQYFIEVGACNSAGCGPPSDMIEAFTKKAPPSQPPRIISSVRSGSRYIITWDHVVALSNESTVTGYKVLYRPDGQHDGKLYSTHKHSIEVPIPRDGEYVVEVRAHSDGGDGVVSQVKIS
notes: extracellular domain; Streptavidin tetramer in cell assays; ECD-Fc in SPR; also called contactin 1
B1: the binding result in experiment [1] was “binds”; in experiment [2] it was “binds”; in the experiment with PTPRT expressed on cells, “no binding”; in the experiment with PTPRF expressed on cells, “no binding”; with PTPRD expressed on cells it was “no binding”.
